Experimental data published in publication PMC10576099, “Endothelial discoidin domain receptor 1 senses flow to modulate YAP activation” (Nature Communications, 2023).

Experiments:
[1] = target: the molecule itself; assay: dual-color FRAP with antibody immobilisation; EA.hy926 ECs co-expressing DDR1-EGFP and mCherry-DDR1, 5 min pre-shear; anti-mCherry polyclonal antibody immobilises the mCherry copy, lateral mobility of the EGFP copy read by FRAP
[2] = target: T1, DDR1 (416-913aa)-EGFP (human, UniProt Q08345 416-913); assay: cell-free droplet (phase separation) assay + turbidity; purified DDR1-C or DDR1-N (5 μM) incubated with varying concentrations of YWHAE-Cherry; 20 mM Tris-HCl pH 7.0, 75 mmol/L KCl, 1 mmol/L DTT, 4 °C 5-10 min, confocal imaging; turbidity at 600 nm with 5% PEG8000; details: both partners purified
T1 construct: human DDR1 (DDR1b), residues 416-913, containing the transmembrane and cytosolic domains; also called DDR1-C; source: E. coli Transetta (DE3), purified (Ni-NTA)

Row | Binder | FRAP recovery ratio of the EGFP copy with the mCherry copy immobilised [1] | binding result [2]
1 | WT DDR1-EGFP co-expressed with mCherry-WT DDR1 (dual-color FRAP) (receptor, human, UniProt Q08345 19-913, looked up, human DDR1, DDR1b isoform, from a plasmid with full-length DDR1b; Two differently tagged copies of the same protein in one cell: each copy has only one of the two fluorescent proteins; The mCherry copy is held by an anti-mCherry polyclonal antibody, the EGFP copy is the one whose mobility is read; also called DDR1 (WT)-GFP; mCherry-DDR1 (WT); source: EA.hy926 ECs, transfected, in living cells; …) DADMKGHFDPAKCRYALGMQDRTIPDSDISASSSWSDSTAARHSRLESSDGDGAWCPAGSVFPKEEEYLQVDLQRLHLVALVGTQGRHAGGLGKEFSRSYRLRYSRDGRRWMGWKDRWGQEVISGNEDPEGVVLKDLGPPMVARLVRFYPRADRVMSVCLRVELYGCLWRDGLLSYTAPVGQTMYLSEAVYLNDSTYDGHTVGGLQYGGLGQLADGVVGLDDFRKSQELRVWPGYDYVGWSNHSFSSGYVEMEFEFDRLRAFQAMQVHCNNMHTLGARLPGGVECRFRRGPAMAWEGEPMRHNLGGNLGDPRARAVSVPLGGRVARFLQCRFLFAGPWLLFSEISFISDVVNNSSPALGGTFPPAPWWPPGPPPTNFSSLELEPRGQQPVAKAEGSPTAILIGCLVAIILLLLLIIALMLWRLHWRRLLSKAERRVLEEELTVHLSVPGDTILINNRPGPREPPPYQEPRPRGNPPHSAPCVPNGSALLLSNPAYRLLLATYARPPRGPGPPTPAWAKPTNTQAYSGDYMEPEKPGAPLLPPPPQNSVPHYAEADIVTLQGVTGGNTYAVPALPPGAVGDGPPRVDFPRSRLRFKEKLGEGQFGEVHLCEVDSPQDLVSLDFPLNVRKGHPLLVAVKILRPDATKNARNDFLKEVKIMSRLKDPNIIRLLGVCVQDDPLCMITDYMENGDLNQFLSAHQLEDKAAEGAPGDGQAAQGPTISYPMLLHVAAQIASGMRYLATLNFVHRDLATRNCLVGENFTIKIADFGMSRNLYAGDYYRVQGRAVLPIRWMAWECILMGKFTTASDVWAFGVTLWEVLMLCRAQPFGQLTDEQVIENAGEFFRDQGRQVYLSRPPACPQGLYELMLRCWSRESEQRPPFSQLHRFLAEDALNTV | 49.2 ± 9.6% | –
2 | locked DDR1-EGFP (D189C/F364C) co-expressed with mCherry-locked DDR1 (dual-color FRAP) (receptor, human, UniProt Q08345 19-913, looked up, human DDR1, DDR1b isoform, DS-like domain locked by two cysteines; Two differently tagged copies of the same mutant in one cell, as for m3; also called DS-like locked mutant; source: EA.hy926 ECs, transfected, in living cells; not shown: EGFP (on one copy); mCherry (on the other copy)) DADMKGHFDPAKCRYALGMQDRTIPDSDISASSSWSDSTAARHSRLESSDGDGAWCPAGSVFPKEEEYLQVDLQRLHLVALVGTQGRHAGGLGKEFSRSYRLRYSRDGRRWMGWKDRWGQEVISGNEDPEGVVLKDLGPPMVARLVRFYPRADRVMSVCLRVELYGCLWRCGLLSYTAPVGQTMYLSEAVYLNDSTYDGHTVGGLQYGGLGQLADGVVGLDDFRKSQELRVWPGYDYVGWSNHSFSSGYVEMEFEFDRLRAFQAMQVHCNNMHTLGARLPGGVECRFRRGPAMAWEGEPMRHNLGGNLGDPRARAVSVPLGGRVARFLQCRFLFAGPWLLFSEISCISDVVNNSSPALGGTFPPAPWWPPGPPPTNFSSLELEPRGQQPVAKAEGSPTAILIGCLVAIILLLLLIIALMLWRLHWRRLLSKAERRVLEEELTVHLSVPGDTILINNRPGPREPPPYQEPRPRGNPPHSAPCVPNGSALLLSNPAYRLLLATYARPPRGPGPPTPAWAKPTNTQAYSGDYMEPEKPGAPLLPPPPQNSVPHYAEADIVTLQGVTGGNTYAVPALPPGAVGDGPPRVDFPRSRLRFKEKLGEGQFGEVHLCEVDSPQDLVSLDFPLNVRKGHPLLVAVKILRPDATKNARNDFLKEVKIMSRLKDPNIIRLLGVCVQDDPLCMITDYMENGDLNQFLSAHQLEDKAAEGAPGDGQAAQGPTISYPMLLHVAAQIASGMRYLATLNFVHRDLATRNCLVGENFTIKIADFGMSRNLYAGDYYRVQGRAVLPIRWMAWECILMGKFTTASDVWAFGVTLWEVLMLCRAQPFGQLTDEQVIENAGEFFRDQGRQVYLSRPPACPQGLYELMLRCWSRESEQRPPFSQLHRFLAEDALNTV | 67.6 ± 4% | –
3 | YWHAE-Cherry recombinant protein (natural protein, UniProt P62258 1-255, looked up, YWHAE (14-3-3ε), Uniprot No. P62258; also called recombinant YWHAE protein; source: bought: Dai-An Biotechnology (Wuhan); expressed by E. coli BL21 (DE3), purity >90% by SDS-PAGE; not shown: mCherry, C-terminal, kept) MDDREDLVYQAKLAEQAERYDEMVESMKKVAGMDVELTVEERNLLSVAYKNVIGARRASWRIISSIEQKEENKGGEDKLKMIREYRQMVETELKLICCDILDVLDKHLIPAANTGESKVFYYKMKGDYHRYLAEFATGNDRKEAAENSLVAYKAASDIAMTELPPTHPIRLGLALNFSVFYYEILNSPDRACRLAKAAFDDAIAELDTLSEESYKDSTLIMQLLRDNLTLWTSDMQGDGEEQNKEALQDVEDENQ | – | binds
